Columns and labels:
[1] = biological target: recombinant SARS-CoV-2 S-6P spike protein (SARS-CoV-2 Wuhan, UniProt P0DTC2, stabilised); assay: ELISA
[2] = biological target: recombinant prefusion stabilized SARS-CoV-2 spike protein (S-2P) (SARS-CoV-2 Wuhan, UniProt P0DTC2, stabilised); assay: HDX-MS
[3] = biological target: SARS-CoV-2 Wuhan spike protein on HEK293T cells (SARS-CoV-2 Wuhan, UniProt P0DTC2); assay: flow cytometry on cells

Measured: binding result

B1: VHH R3DC23 (VHH)
VHH: QVQLQESGGGLVQAGDSLTLSCAVSGRIFSTYTMGWFRQAPGKEREFVAAVRWGAGTIYYADSMKGRFTISRDSAKNTVDLQMNSTKPEDTAVYYCGAAYVSKANYGSLWYQDSRRYDYWGQGTQVTVSS
binds: all assays above

From paper doi:10.1101/2023.03.10.531533 (bioRxiv, 2023)
